Results from patent publication US11884743B2, “Preparation and application of an intact recombinant antibody specific to clothianidin based on the identified variable region sequence” (Zhejiang University, priority 2020, dated 2024).

Columns and labels:
[1] = antibody binding kinetics by surface plasmon resonance (SPR); conditions: CM7 chip, antibody coupled at pH 5.0, clothianidin 0.78-50 nM
Description: The CM7 chip was used in this invention, and the optimal pH for both antibodies was 5.0. The final signal values of the antibodies coupled on the chip were 38663 RU and 39854 RU, respectively. Kinetic experiments were performed to determine the affinity of both the parental ascitic monoclonal antibody and the intact recombinant antibody to clothianidin at a range of analyte concentrations ([…], and 0.78 nM).

[2] = heterologous competitive indirect ELISA (coating antigen imidaclothiz-OVA); assay type: binding
Source text: In the early preparation stage of parental ascitic monoclonal antibodies, the assay sensitivity difference was compared between the homologous competitive indirect ELISA (coating antigen was clothianidin-OVA) and the heterologous competitive indirect ELISA (coating antigen was imidaclothiz-OVA). […] Therefore, in the present disclosure, the heterologous competitive indirect ELISA was used to evaluate the sensitivity and specificity of the intact recombinant antibody against clothianidin. A 96-well plate was coated with imidaclothiz-OVA as the heterologous competitive antigen; subsequently, ELISA was performed using a rabbit anti-mouse IgG-HRP as a detection antibody, tetramethylbenzidine (TMB) as a reaction substrate, and clothianidin and other neonicotinoid pesticide standards as analytes.

B1: intact recombinant antibody against clothianidin: Recombinant mouse IgG1/kappa antibody, VH SEQ ID NO: 2, VL SEQ ID NO: 4, expressed in HEK293F cells (antibody, listed as Mus musculus, V domains shown)
VH: EVQLQQSGPELVKPGASVKMSCKASGYTFTNYVMHWVKQKPGQGLEWIGFFYPYIDYTKYNEMFKGKATLTSDTSSSTAYMELSGLTSEDSAVYFCARSQFFYRYDYFDYWGQGTALTVSS
VL: DVLMTQTPLSLPVSLGDQASISCRSSQNIVHSNGNTYLEWYLQKPGQSPKVLIYKVSNRFSGVPDRFSGSGSGTDFTLKINRVEAEDLGIYYCFQGSHVPFTFGSGTKLEIK
Kd [1]: 3.24 nM | Sensitivity (IC50) [2]: 4.62 ng/mL | detection range for ELISA (IC20-IC80) [2]: 0.92 to 23.04 ng/mL
